In paper PMC4683182, “Global Regulator IscR Positively Contributes to Antimonite Resistance and Oxidation in Comamonas testosteroni S44”:
Numbering of substitutions follows the chain as printed.

B1: Site A 30-bp (dsDNA)
DNA 1: CTGTTACCCGACAAAATTGATGGGGAATGT
DNA 2: ACATTCCCCATCAATTTTGTCGGGTAACAG
B2: Site B 30-bp (dsDNA)
DNA 1: GATATACTCGCCTCAAACACTCAACAACAA
DNA 2: TTGTTGTTGAGTGTTTGAGGCGAGTATATC
B3: Site A* 30-bp (dsDNA)
DNA 1: CTGTTACCCGACAAAGCTGGCGGGGAATGT
DNA 2: ACATTCCCCGCCAGCTTTGTCGGGTAACAG
B4: Site B* 30-bp (dsDNA)
DNA 1: B2 DNA 1 with A4G, T5C, A6G
DNA 2: B2 DNA 2 with T25C, A26G, T27C

molecular target: T1, IscR (His-tagged) (Comamonas testosteroni S44, UniProt A0A0L7MDB4 1-178); assay: EMSA; 100 mM HEPES pH 7.6, 5 mM EDTA, 50 mM (NH4)2SO4, 5 mM DTT, 1% (w/v) Tween 20, 150 mM KCl; 30 min at 30 C; 20 uL; 6% native PAGE, ethidium bromide; settings: protein: recombinant; tags: His-tag (pET-28a(+)); chain copies: 2
T1 sequence: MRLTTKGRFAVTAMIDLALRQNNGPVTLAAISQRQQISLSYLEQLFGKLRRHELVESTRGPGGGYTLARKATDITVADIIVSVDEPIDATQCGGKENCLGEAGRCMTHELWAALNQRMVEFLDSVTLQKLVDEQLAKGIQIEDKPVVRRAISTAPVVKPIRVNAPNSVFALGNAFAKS

Binder	binding result
B1	binds
B2	binds
B3	no binding
B4	no binding
